Test results: the supplement of paper PMC12042874
± gives the uncertainty stated by the source.

Assay: amyloid nucleation score (Sup35N fusion, yeast selection) (log enrichment); library NNK3; higher = more nucleation; inactive = no reads after selection
How it was run: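 Random libraries were run with three technical output replicates. In each, psi-negative yeast expressing Sup35N fused to peptides of 20 random codons were induced 24 hours with 100 μM copper sulfate and grown 7 days at 30°C on medium lacking adenine and uracil, and input and output plasmid inserts were Illumina-sequenced. The nucleation score is the DiMSum log enrichment of output over input reads, centred on the mode score of non-aggregating sequences, and sequences under 100 input reads were excluded.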

Substance	amyloid nucleation score
IFLAGDMC	inactive
IFLKHIPRHSSSKTMTANCP	inactive
IFLRYSLSSRYHRCLLLKES	inactive
IFPNLACSFRFCTRPYRSSM	0.571 ± 0.25
IFSNLGVVNLCRACFKYSNI	2.92 ± 0.059
IFVLDASMVMSFYVSVDASS	0.989 ± 0.093
IFYVCRIIWCTERQVGKLGL	inactive
IGEMNTPMPAMKFVMRWLDH	0.845 ± 0.13
IGFNA	inactive
IGIIFSKVWSPPDDMHT	1.28 ± 0.095
IGLSAKIRFWVMWRMRHTR	inactive
IGPVVGGYRYMCPASDHK	inactive
IHCLLLDRVTNLFLTMQAG	inactive
IHCSSWFELS	inactive
IHCYCS	inactive
IHGKGGLWSHSISIHWNN	inactive
IHLIVWGPSSTLVMVFMEVM	inactive
IHVDLYN	inactive
IHYGEYNFLGKSRWNHLFFF	inactive
IIFFYGGS	1.9 ± 0.08
IIGWDDFLLVYNIKLYHNS	inactive
IILLSGDSSSRIQEVKVGKK	inactive
IINFIVCMMSVQNMCCALFG	1.39 ± 0.1
IIPVTSRDYSRKPYPTLERV	inactive
IISQIRCFNLPEVPSSTMCL	inactive
IITVSGPLVVLVLSGKGSNN	2.42 ± 0.062
IIVRSTDGLSCRSDSIYECD	inactive

Substance	amyloid nucleation score
IKFDGIIADFSSITVVLECT	0.708 ± 0.25
IKFVPRA	inactive
IKGFRGLLFEVSYHSPELGW	inactive
IKGLAPRFAVGLDNLMSESM	inactive
IKIMHLSQPMDSMSLLHHG	inactive
IKLFLIHTTPSFPNTREHDL	inactive
IKPCGCSVLDIRT	inactive
IKQGYRAHLWWIVVNRLMFD	inactive
IKSKNAVCCHFATTMQDSLT	inactive
ILASKALQQLLQGLTLV	-0.375 ± 0.98
ILCQIDAKDPKPLMTRGLRL	inactive
ILEYAVVNHQVNLVIVSIGH	1.65 ± 0.068
ILFGGRNGKWLVEPGLSRVL	0.84 ± 0.23
ILGAILLSMFDSLYLGGEWR	inactive
ILKVVWYNSPEG	0.898 ± 0.16
ILMQNSETWSLYPNTA	inactive
ILNISCFYEWYDHTLNSQSV	-0.203 ± 0.42
ILNTCYISHFPFQL	2.33 ± 0.087
ILNYLRENCQKVTGRGA	-0.679 ± 0.96
ILQTLQDVRVRGMDISTASL	inactive
ILQVFKIMFKRRGLSFHLGI	inactive
ILQYRYKGWNRKGYHQQPVI	inactive
ILRFFVCLSHKNVDFICSAR	inactive
ILRSLVSLWYGCDCW	0.661 ± 0.16
ILSDMTGDHNSINFDMYSGI	inactive
ILTCFFSQEMIWHFLDTYDY	0.522 ± 0.24
ILTGILDFFFGTSNSRYRNG	inactive

Substance	amyloid nucleation score
ILTHIVWLFVRLSCMNWNWL	inactive
ILTISNTAKKSDW	inactive
ILTLTSRPLLLNLKKPFWVF	inactive
ILVCCISVETTHDNGPEVVG	2.22 ± 0.061
ILYNFEDVLWAGSLRIGLNL	inactive
ILYRCDCAFFYPLGLLFSRC	inactive
IMCIYEGAVSMYMRVWSNMS	inactive
IMEIMVNTWGNVTVRNSWRL	1.23 ± 0.14
IMKRFVMFLCFSISIWMFVV	inactive
IMLKGS	inactive
IMSVRIGSLGVMSHWSLYSY	inactive
IMTLFTILVTLMTMCLDQFV	inactive
IMVAMGW	inactive
IMYPIRSSGLEPLNMCGYQA	inactive
INNAPFNLPLANK	inactive
INSDSSQFSYSSLGKVIGMY	inactive
INSVSRGCINHFASVEGPCI	inactive
INVTLCCTMYD	3.02 ± 0.053
INWLWFLMHIIQI	inactive
IPCLQVYFTSTPNPSWSHGH	inactive
IPFFIGCHNKCRVYLWVAVG	inactive
IPGALGNKAICTRASSRRVG	inactive
IPGAVISEYYKSYRSSTIPP	inactive
IPNMDAFLERRPREYNWPVA	inactive
IPSNTKSFSH	inactive
IPVAIMLS	inactive
